Series [1] deals with the molecule itself. The series can be described thus: SEC-MALS; size exclusion chromatography (SEC) in combination with static light scattering (SLS); in solution. A general note: In gel filtration, larger molecules generally elute earlier.
The target in series [2] is T1, linear Ub2 (UniProt P0CG48 1-76; P0CG48 1-76).
T1 construct: ubiquitin, distal moiety of Met1-linked linear di-ubiquitin (two ubiquitins head to tail on one chain); ubiquitin, proximal moiety of Met1-linked linear di-ubiquitin; also called linUb2; methionine-1-linked linear di-ubiquitin; source: recombinant
The series can be described thus: NMR titration; 1H,15N TROSY of 100 μM 15N-labeled NEMO_(UBAN) (258–350) without or with unlabeled linear Ub2 at 2:1 (NEMO_(UBAN):Ub2). The settings on record: both partners purified.

For series [3], the target named is T1, linear Ub2. Briefly: MST + ITC; Microscale Thermophoresis and Isothermal Titration Calorimetry of NEMO_(UBAN) C347S with linUb2; conditions not shown. The settings on record: both partners purified.
Series [4] deals with the molecule itself. The series can be described thus: SAXS; 293 K; 300 mM NaCl, 50 mM Tris-HCl pH 8.0; NEMO_(UBAN) C347S 2.8–9.9 mg/ml; NEMO_(UBAN) C347S and linear Ub2 mixed 2:1 (3.5–12.9 mg/ml) and 2:2 (4.9–12.1 mg/ml).

The values that follow come from article PMC4703965, “Inhibition of Canonical NF-κB Signaling by a Small Molecule Targeting NEMO-Ubiquitin Interaction” (Scientific Reports, 2016).

Where a chain is given by its changes, count along the chain named. In names and notes the source's numbering stands.

B1: NEMO_(UBAN) (258–350) (domain or fragment, UniProt Q9Y6K9 258-350, looked up)
chain: MQLEDLKQQLQQAEEALVAKQEVIDKLKEEAEQHKIVMETVPVLKAQADIYKADFQAERQAREKLAEKKELLQEQLEQLQREYSKLKASCQES
notes: NEMO (IKKγ, NF-κB essential modulator), UBAN / CC2-LZ region, residues 258–350; 15N-labelled for the NMR experiment; The His6 tag was cleavable by 3C or TEV protease; also called NEMO_(258–350); NEMO_(UBAN) WT; source: cloned into pET vectors, recombinant, purified (details in the Supporting Information); not shown: His6, N-terminal, cleaved
As usually defined, the stoichiometry N is a count of units in the complex or per binding partner. With B1, the “stoichiometry N” value in series [1] was found to be 2. The binding result with linear Ub2 [2] was “binds”.

B2: NEMO_(UBAN) C347S (258–350) (domain or fragment, UniProt Q9Y6K9 258-350, looked up)
chain: B1 chain with C90S
notes: NEMO (IKKγ), UBAN / CC2-LZ region, residues 258–350 with C347S; Used for SAXS, for MST/ITC and unlabelled in the NMR experiments with 15N-linUb2; also called NEMO_(258–350) C347S; source: cloned into pET vectors, recombinant, purified (details in the Supporting Information); not shown: His6, N-terminal, cleaved
Usually Kd stands for the free concentration of one partner at which half of the binding sites on the other are occupied at equilibrium, for simple one-to-one binding. As for B2, in the series with linear Ub2 [3], the dissociation constant (Kd) was 1000 to 2000 nM. The “stoichiometry N” value in series [4] came to 2.
